Patent publication US20250163182A1

Experiments:
[1] = target: human ENPP3 on cells (human) (UniProt O14638); assay: flow cytometry receptor quantification on 786-O cells
[2] = target: human ENPP3 on cells (human) (UniProt O14638); assay: flow cytometry receptor quantification on ACHN cells
[3] = target: human ENPP3 on cells (human) (UniProt O14638); assay: flow cytometry receptor quantification on TUHR4TKB cells (Table 18 of the text prints this value under a second TUHR10TKB row)
[4] = target: human ENPP3 on cells (human) (UniProt O14638); assay: flow cytometry receptor quantification on HUH-7 cells
[5] = target: human ENPP3 on cells (human) (UniProt O14638); assay: flow cytometry receptor quantification on CHO-K1 ENPP3-OE cells; bar above the ULOD line
[6] = target: human ENPP3 on cells (human) (UniProt O14638); assay: flow cytometry receptor quantification on Hep3B cells
[7] = target: human ENPP3 on cells (human) (UniProt O14638); assay: flow cytometry receptor quantification on KMRC20 cells

Chain of human ENPP3 on cells (human) (O14638 whole entry): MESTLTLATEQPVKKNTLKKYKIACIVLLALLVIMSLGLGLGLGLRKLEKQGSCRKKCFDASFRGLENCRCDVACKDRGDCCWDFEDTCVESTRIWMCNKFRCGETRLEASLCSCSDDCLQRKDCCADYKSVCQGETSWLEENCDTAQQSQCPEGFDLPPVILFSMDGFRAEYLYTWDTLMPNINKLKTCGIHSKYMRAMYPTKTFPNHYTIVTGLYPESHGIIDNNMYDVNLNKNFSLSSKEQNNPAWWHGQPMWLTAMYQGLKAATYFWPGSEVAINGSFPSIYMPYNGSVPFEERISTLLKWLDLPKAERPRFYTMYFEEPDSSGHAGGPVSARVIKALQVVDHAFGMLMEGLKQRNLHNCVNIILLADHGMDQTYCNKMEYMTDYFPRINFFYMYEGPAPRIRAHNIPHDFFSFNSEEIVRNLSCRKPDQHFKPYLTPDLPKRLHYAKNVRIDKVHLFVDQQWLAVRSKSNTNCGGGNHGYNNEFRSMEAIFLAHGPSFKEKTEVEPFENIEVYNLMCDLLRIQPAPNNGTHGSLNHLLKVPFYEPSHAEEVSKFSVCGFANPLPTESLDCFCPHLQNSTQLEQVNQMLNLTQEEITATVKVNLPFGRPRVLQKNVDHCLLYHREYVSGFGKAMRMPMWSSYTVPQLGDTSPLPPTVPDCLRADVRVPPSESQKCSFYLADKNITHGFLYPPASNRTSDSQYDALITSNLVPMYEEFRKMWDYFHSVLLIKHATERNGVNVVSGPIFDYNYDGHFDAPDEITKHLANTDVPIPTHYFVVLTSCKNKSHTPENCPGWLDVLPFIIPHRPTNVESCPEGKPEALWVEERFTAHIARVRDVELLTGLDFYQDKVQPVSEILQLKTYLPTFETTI

ENPP3 Receptor Density - Antibody Binding capacity (ABC) [1]: 4000 ABC | ENPP3 Receptor Density - Antibody Binding capacity (ABC) [2]: 5000 ABC | ENPP3 Receptor Density - Antibody Binding capacity (ABC) [3]: 61000 ABC | ENPP3 Receptor Density - Antibody Binding capacity (ABC) [4]: 7000 ABC | ENPP3 Receptor Density - Antibody Binding capacity (ABC) [5]: > 470000 ABC | ENPP3 Receptor Density - Antibody Binding capacity (ABC) [6]: 13000 ABC | ENPP3 Receptor Density - Antibody Binding capacity (ABC) [7]: 21000 ABC
Substance: commercial ENPP3 antibody clone NP4D6
